Measurements: patent publication US8748182B2, “Mutant proteins and methods for producing them” (Heptares Therapeutics Limited, priority 2007, dated 2014)
Where a chain is given by its changes, count along the chain named. Names and notes keep the numbering of the source.

Assay: Thermostability of solubilised adenosine A2a receptor and mutants (radioligand binding after or during heating)
Type: physicochemical
Settings: for thermostability measured with 3H-NECA (agonist) / thermostability assayed with 3H-ZM241385 (antagonist): Ligand(−) format, binding after the heating step
Text: FIG. 12 Flow chart showing the two different assay formats of ligand (+) and ligand (−) used to determine receptor thermostablity.
• 1. 315 site-directed mutants made between residues 2-316 of A2aR. • 2. All of these mutants have been assayed for thermostability using an assay measuring agonist and antagonist binding after the heating step (Ligand(−) format as described in FIG. 12). • a. […] Mutations have been combined to generate mutants in a putative antagonist conformation. Wildtype A2aR has a Tm of 31° C. with ZM241385 bound. • a. Rant17 A54L+K122A+L235A Tm 48° C. (ZM241385 bound) • b. Rant19 A54L,T88A,V239A+A204L Tm 47° C. (ZM241385 bound) • c. Rant21 A54L,T88A,V239A+K122A Tm 49° C. (ZM241385 bound) • 4. Mutations from the agonist screen have been combined, but have led to only a very low level of improvement in Tm of +2° C.

B1: T224A: A2aR point mutant (protein, UniProt P29274 1-412, looked up, variant T224A)
Adenosine receptor A2a: MPIMGSSVYITVELAIAVLAILGNVLVCWAVWLNSNLQNVTNYFVVSLAAADIAVGVLAIPFAITISTGFCAACHGCLFIACFVLVLTQSSIFSLLAIAIDRYIAIRIPLRYNGLVTGTRAKGIIAICWVLSFAIGLTPMLGWNNCGQPKEGKNHSQGCGEGQVACLFEDVVPMNYMVYFNFFACVLVPLLLMLGVYLRIFLAARRQLKQMESQPLPGERARSALQKEVHAAKSLAIIVGLFALCWLPLHIINCFTFFCPDCSHAPLWLMYLAIVLSHTNSVVNPFIYAYRIREFRQTFRKIIRSHVLRQQEPFKAAGTSARVLAAHGSDGEQVSLRLNGHPPGVWANGSAPHPERRPNGYALGLVSGGSAQESQGNTGLPDVELLSHELKGVCPEPPGLDDPLAQDGAGVS
thermostability measured with 3H-NECA (agonist): improved thermostability

B2: L272A: A2aR point mutant (protein, UniProt P29274 1-412, looked up, variant L272A)
Adenosine receptor A2a: B1 Adenosine receptor A2a with A224T, L272A
thermostability measured with 3H-NECA (agonist): improved thermostability

B3: A54L: A2aR point mutant (protein, UniProt P29274 1-412, looked up, variant A54L)
Adenosine receptor A2a: B1 Adenosine receptor A2a with A54L, A224T
thermostability assayed with 3H-ZM241385 (antagonist): improved thermostability

B4: L241A: A2aR point mutant (protein, UniProt P29274 1-412, looked up, variant L241A)
Adenosine receptor A2a: B1 Adenosine receptor A2a with A224T, L241A
thermostability measured with 3H-NECA (agonist): improved thermostability

B5: V239A: A2aR point mutant (protein, UniProt P29274 1-412, looked up, variant V239A)
Adenosine receptor A2a: B1 Adenosine receptor A2a with A224T, V239A
thermostability assayed with 3H-ZM241385 (antagonist): improved thermostability

B6: G123A: A2aR point mutant (protein, UniProt P29274 1-412, looked up, variant G123A)
Adenosine receptor A2a: B1 Adenosine receptor A2a with G123A, A224T
thermostability assayed with 3H-ZM241385 (antagonist): improved thermostability

B7: Rant19: A2aR with A54L, T88A, V239A+A204L (protein, UniProt P29274 1-412, looked up, variant A54L T88A V239A A204L)
Adenosine receptor A2a: B1 Adenosine receptor A2a with A54L, T88A, A204L, A224T, V239A
Tm (ZM241385 bound): 47 °C

B8: K122A: A2aR point mutant (protein, UniProt P29274 1-412, looked up, variant K122A)
Adenosine receptor A2a: B1 Adenosine receptor A2a with K122A, A224T
thermostability assayed with 3H-ZM241385 (antagonist): improved thermostability

B9: E151A: A2aR point mutant (protein, UniProt P29274 1-412, looked up, variant E151A)
Adenosine receptor A2a: B1 Adenosine receptor A2a with E151A, A224T
thermostability assayed with 3H-ZM241385 (antagonist): improved thermostability

B10: Q226A: A2aR point mutant (protein, UniProt P29274 1-412, looked up, variant Q226A)
Adenosine receptor A2a: B1 Adenosine receptor A2a with A224T, Q226A
thermostability measured with 3H-NECA (agonist): improved thermostability

B11: Rant17: A2aR with A54L+K122A+L235A (protein, UniProt P29274 1-412, looked up, variant A54L K122A L235A)
Adenosine receptor A2a: B1 Adenosine receptor A2a with A54L, K122A, A224T, L235A
Tm (ZM241385 bound): 48 °C

B12: L267A: A2aR point mutant (protein, UniProt P29274 1-412, looked up, variant L267A)
Adenosine receptor A2a: B1 Adenosine receptor A2a with A224T, L267A
thermostability measured with 3H-NECA (agonist): improved thermostability

B13: S263A: A2aR point mutant (protein, UniProt P29274 1-412, looked up, variant S263A)
Adenosine receptor A2a: B1 Adenosine receptor A2a with A224T, S263A
thermostability measured with 3H-NECA (agonist): improved thermostability

B14: Q311A: A2aR point mutant (protein, UniProt P29274 1-412, looked up, variant Q311A)
Adenosine receptor A2a: B1 Adenosine receptor A2a with A224T, Q311A
thermostability measured with 3H-NECA (agonist): improved thermostability

B15: T119A: A2aR point mutant (protein, UniProt P29274 1-412, looked up, variant T119A)
Adenosine receptor A2a: B1 Adenosine receptor A2a with T119A, A224T
thermostability assayed with 3H-ZM241385 (antagonist): improved thermostability

B16: G152A: A2aR point mutant (protein, UniProt P29274 1-412, looked up, variant G152A)
Adenosine receptor A2a: B1 Adenosine receptor A2a with G152A, A224T
thermostability assayed with 3H-ZM241385 (antagonist): improved thermostability

B17: H230A: A2aR point mutant (protein, UniProt P29274 1-412, looked up, variant H230A)
Adenosine receptor A2a: B1 Adenosine receptor A2a with A224T, H230A
thermostability measured with 3H-NECA (agonist): improved thermostability

B18: N284A: A2aR point mutant (protein, UniProt P29274 1-412, looked up, variant N284A)
Adenosine receptor A2a: B1 Adenosine receptor A2a with A224T, N284A
thermostability measured with 3H-NECA (agonist): improved thermostability

B19: P313A: A2aR point mutant (protein, UniProt P29274 1-412, looked up, variant P313A)
Adenosine receptor A2a: B1 Adenosine receptor A2a with A224T, P313A
thermostability measured with 3H-NECA (agonist): improved thermostability

B20: G118A: A2aR point mutant (protein, UniProt P29274 1-412, looked up, variant G118A)
Adenosine receptor A2a: B1 Adenosine receptor A2a with G118A, A224T
thermostability assayed with 3H-ZM241385 (antagonist): improved thermostability | thermostability measured with 3H-NECA (agonist): improved thermostability

B21: P149A: A2aR point mutant (protein, UniProt P29274 1-412, looked up, variant P149A)
Adenosine receptor A2a: B1 Adenosine receptor A2a with P149A, A224T
thermostability assayed with 3H-ZM241385 (antagonist): improved thermostability

B22: V57A: A2aR point mutant (protein, UniProt P29274 1-412, looked up, variant V57A)
Adenosine receptor A2a: B1 Adenosine receptor A2a with V57A, A224T
thermostability assayed with 3H-ZM241385 (antagonist): improved thermostability

B23: A203L: A2aR point mutant (protein, UniProt P29274 1-412, looked up, variant A203L)
Adenosine receptor A2a: B1 Adenosine receptor A2a with A203L, A224T
thermostability assayed with 3H-ZM241385 (antagonist): improved thermostability | thermostability measured with 3H-NECA (agonist): improved thermostability

B24: A184L: A2aR point mutant (protein, UniProt P29274 1-412, looked up, variant A184L)
Adenosine receptor A2a: B1 Adenosine receptor A2a with A184L, A224T
thermostability measured with 3H-NECA (agonist): improved thermostability

B25: G114A: A2aR point mutant (protein, UniProt P29274 1-412, looked up, variant G114A)
Adenosine receptor A2a: B1 Adenosine receptor A2a with G114A, A224T
thermostability assayed with 3H-ZM241385 (antagonist): improved thermostability | thermostability measured with 3H-NECA (agonist): improved thermostability

B26: T88A: A2aR point mutant (protein, UniProt P29274 1-412, looked up, variant T88A)
Adenosine receptor A2a: B1 Adenosine receptor A2a with T88A, A224T
thermostability assayed with 3H-ZM241385 (antagonist): improved thermostability

B27: K227A: A2aR point mutant (protein, UniProt P29274 1-412, looked up, variant K227A)
Adenosine receptor A2a: B1 Adenosine receptor A2a with A224T, K227A
thermostability measured with 3H-NECA (agonist): improved thermostability

B28: L167A: A2aR point mutant (protein, UniProt P29274 1-412, looked up, variant L167A)
Adenosine receptor A2a: B1 Adenosine receptor A2a with L167A, A224T
thermostability measured with 3H-NECA (agonist): improved thermostability

B29: R199A: A2aR point mutant (protein, UniProt P29274 1-412, looked up, variant R199A)
Adenosine receptor A2a: B1 Adenosine receptor A2a with R199A, A224T
thermostability measured with 3H-NECA (agonist): improved thermostability

B30: L235A: A2aR point mutant (protein, UniProt P29274 1-412, looked up, variant L235A)
Adenosine receptor A2a: B1 Adenosine receptor A2a with A224T, L235A
thermostability assayed with 3H-ZM241385 (antagonist): improved thermostability

B31: P260A: A2aR point mutant (protein, UniProt P29274 1-412, looked up, variant P260A)
Adenosine receptor A2a: B1 Adenosine receptor A2a with A224T, P260A
thermostability measured with 3H-NECA (agonist): improved thermostability

B32: A204L: A2aR point mutant (protein, UniProt P29274 1-412, looked up, variant A204L)
Adenosine receptor A2a: B1 Adenosine receptor A2a with A204L, A224T
thermostability assayed with 3H-ZM241385 (antagonist): improved thermostability

B33: A231L: A2aR point mutant (protein, UniProt P29274 1-412, looked up, variant A231L)
Adenosine receptor A2a: B1 Adenosine receptor A2a with A224T, A231L
thermostability assayed with 3H-ZM241385 (antagonist): improved thermostability

B34: K315A: A2aR point mutant (protein, UniProt P29274 1-412, looked up, variant K315A)
Adenosine receptor A2a: B1 Adenosine receptor A2a with A224T, K315A
thermostability measured with 3H-NECA (agonist): improved thermostability

B35: H75A: A2aR point mutant (protein, UniProt P29274 1-412, looked up, variant H75A)
Adenosine receptor A2a: B1 Adenosine receptor A2a with H75A, A224T
thermostability assayed with 3H-ZM241385 (antagonist): improved thermostability
